Data published in the DeepSol protein solubility set.

assay: soluble on expression in E. coli; label from the status in PepcDB or PDB records

Soluble on expression in E. coli, not soluble:
MADDPLYLDRTGEWAGLWWLPEIPDEKVPGFLRYDAECGLLLSLIGAFEDRVTSNPSPGVTAYHEGTRTWEVIHGVAEQREITLFDTIPISSKRTIGARVESPAKQTVTASVAIIGAHVRSEGDPQFAGVEVSVEDLGRWAGSSVFEGLLGAPDGNFDGTGSISVKPVEAQSVLVGGTEYRLVHTHTLPYFDQRKSETVGRMRDTVSIRIVPASPFSLNAALHEASLVQDLISLATHQSAGVIWLRVEVARSESQLPDGRTSPRRRADVLYSPVALGKHDAKPVDHHRMFFTCNSLPFEEVLPRWCETHVRLQAATNMILGLRYAPARFVENNLLTAVGAAEALHRNLRIGEKPFSKAEFTAMRGAMLDQVPSEHRERFKAAIRNDPTLRDRLHALAARPDEEAIGQLIPDVDYWAKRTTRARNDLAHEGRTPNHSFEELVAIVEVTTAVVILNVLQELGLSAERQREIVLTHPKLRHTVGLSREWLVPSKSD
MAKKKTKFTCQECGYQSPKYMGKCPGCGQWNSLVEEMEPVVSSRRLNYANAIQTEVTKPRRLTEVETKSEARIETKFQEFNRVLGGGIVDGSLVLIGGDPGIGKSTLLLQISSQLADASYDVLYISGEESAKQIKLRADRLHVNGSNLFVVSETDLQRIAAHIEEMNPAFVVIDSIQTIHLPEVTSAPGSVAQVRECTAELMKLAKTKGIPIFIVGHVTKEGAIAGPRMLEHMVDAVLYFEGDRHHTYRILRAVKNRFGSTNEMGIFEMKELGLAEVLNPSEIFLEERPVGVAGSTVVASMEGTRPVLVEIQALISPTSFGNPRRMATGIDHNRVSLIMAVLEKRTGLLLQNQDAYLKVAGGLKLDEPAIDLAVALSIASSFRDKSTAPTDAVIGEVGLTGEIRRVSRIEQRVQEAAKLGFQRAIIPRKNLGGWTIPEGIEVVGVSNLGEALRLTLGG
MNGNRAQPMNMPNEPHPKLKLEQYLGIQIKRQRQAQELKLADVARIAGISQGMLSKIENAQVSTSLDNLSRLCDVLGMPMSKLFSQYDQQGSSALLVRADEGLEVVRRGTEKGHTYHLLNHTRGPKKSFEAYMVTMDDASEEFPTFSHPGTEFLHLLEGELIYRHGNQLYPMQAGDSLTFDGDIPHGPEQLVQVPIKLLSIMNYGAQGD

Soluble on expression in E. coli, soluble:
MSLDEGLLNKVKERGTLLVGLEGTYPPFSFQGDDGKLTGFEVEFAQQLAKHLGVEASLKPTKWDGMLASLDSKRIDVVINQVTISDERKKKYDFSTPYTISGIQALVKKGNEGTIKTADDLKGKKVGVGLGTNYEEWLRQNVQGVDVRTYDDDPTKYQDLRVGRIDAILVDRLAALDLVKKTNDTLAVTGEAFSRQESGVALRKGNEDLLKAVNDAIAEMQKDGTLQALSEKWFGADVTEGHHHHHH
MAHHHHHHMGGVRIARCNPKLLDFVTWAVMKGCRLFQRVHVTPLGLVATERIPEFDFVAVVPVEATQSLLSIADDPSFALKVSAERHGEPVPFWEDLTRGSFAFLGFLTKALLTGHPRGVQTYLDVLPFDPAMPIGKMADAAQTTKGYKEWAAPLVAQCKVEESDFNAAFRHAYCLFRRHAIPLWSTSDASGSGHPYFQQSPYARRGQGELMGMVPVMDLALHSPQPNAMIGYPDEEMLQWLSLHKKAAVQQEKGYFVMQAFRDIEEGEVISVNKNAYFNFDDDAFEAWFGYPNVSQVPAEGSGELSSGCKPNGGEGAAVNCAL
MAHHHHHHMEPSVKESVSRIPLLKTKAGPRDGDKWTARLKEEYASLITYVEHNKASDSHWFHLESNPQGTRWYGTCWTYYKNEKYEFEMNFDIPVTYPQAPPEIALPELEGKTVKMYRGGKICMTTHFFPLWARNVPYFGISHVLALGLGPWLSIEVPAIVEEGYLKPASAATVPTTGE
MKRDGHTHTEFCPHGTHDDVEEMVLKAIELDFDEYSIVEHAPLSSEFMKNTAGDKEAVTTASMAMSDLPYYFKKMNHIKKKYASDLLIHIGFEVDYLIGYEDFTRDFLNEYGPQTDDGVLSLHFLEGQGGFRSIDFSAEDYNEGIVQFYGGFEQAQLAYLEGVKQSIEADLGLFKPRRMGHISLCQKFQQFFGEDTSDFSEEVMEKFRVILALVKKRDYELDFNTAGLFKPLCGETYPPKKIVTLASELQIPFVYGSDSHGVQDIGRGYSTYCQKLEHHHHHH
GPGSMRNLVREGITPPVLVFVQSVERSKELYEEIRMEGLHMAIMHAKMTVEQREETVLQFRLGKIWVLVTTELLARGIDFKNVGTVINFDFPATVDSYIHRVGRTGRAGKEGTAITFFTEDDKERLPPIAKVMQDSGNAVEDWILGIKVDRSTRRRLERTTPQRTIVSTRKRMLVAQQRVQRQYRRLEAEKAAKQASKRSKGCGDCDRDDGDDSTDDA
